The target in test [1] is T1, IgC domain of B7-H3 (human, UniProt Q5ZPR3 141-242).
T1 sequence: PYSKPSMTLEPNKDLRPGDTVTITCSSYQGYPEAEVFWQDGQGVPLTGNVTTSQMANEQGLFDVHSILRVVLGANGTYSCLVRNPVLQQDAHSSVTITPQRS
In words: ELISA on coated antigen, IgG1 antibody. The procedure: (§1) Protein binding: 100 μL of antigen B7-H3 (R&D) at 20 ng/ml was coated onto microplate, incubated at 2-8° C. overnight. Subsequently, 100 μL of the prepared full-length IgG1 antibody described above was added with a total of 8 concentrations started from 2000 ng/ml and serially diluted with 3-fold, incubating at 37° C., 600 rpm for 1 hour. After the plate was washed for three times, Goat anti human IgG (Fc)-HRP enzyme-linked antibody was added and the plate was shook at 37° C. and 600 rpm for 1 hour. After the plate was washed for 4 times, TMB chromogenic solution was aliquoted in and incubated for 10 minutes, then 1 mol/L […] stop solution at 100 μL/well was aliquoted to stop the reaction and the absorbance was measured.
Background: ELISA stands for enzyme-linked immunosorbent assay.

For test [2], the target named is T2, 4Ig B7-H3 (soluble human B7-H3 protein with 435 amino acids) (human, UniProt Q5ZPR3 27-461, limits assumed).
T2 construct: also called 4Ig-B7H3 antigen; B7H3/4Ig
T2 sequence: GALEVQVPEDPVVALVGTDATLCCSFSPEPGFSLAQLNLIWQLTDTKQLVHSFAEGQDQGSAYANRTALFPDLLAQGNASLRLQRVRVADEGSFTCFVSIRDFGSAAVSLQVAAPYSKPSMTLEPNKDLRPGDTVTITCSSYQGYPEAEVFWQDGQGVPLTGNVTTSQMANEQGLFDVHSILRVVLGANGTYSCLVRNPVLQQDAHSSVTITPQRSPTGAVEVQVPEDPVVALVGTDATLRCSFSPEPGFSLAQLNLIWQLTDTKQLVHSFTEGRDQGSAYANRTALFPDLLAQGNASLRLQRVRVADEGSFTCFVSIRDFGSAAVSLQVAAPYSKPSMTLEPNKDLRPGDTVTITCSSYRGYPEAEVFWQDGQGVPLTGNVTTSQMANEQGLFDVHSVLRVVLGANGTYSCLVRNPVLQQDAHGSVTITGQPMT
Briefly: ELISA on coated antigen, IgG1 antibody. How it is done:
as §1

The target in test [3] is T3, 2Ig B7-H3 (soluble human B7-H3 with 217 amino acids) (human, UniProt Q5ZPR3 29-463).
T3 construct: also called 2IgB7-H3 domain
T3 sequence: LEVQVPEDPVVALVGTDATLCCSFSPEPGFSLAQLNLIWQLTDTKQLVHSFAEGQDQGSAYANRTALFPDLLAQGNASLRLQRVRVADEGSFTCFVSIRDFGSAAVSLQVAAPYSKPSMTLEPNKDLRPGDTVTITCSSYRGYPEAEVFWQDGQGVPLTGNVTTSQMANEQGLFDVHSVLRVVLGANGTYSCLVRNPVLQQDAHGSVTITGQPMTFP
In words: ELISA on coated antigen, IgG1 antibody. How it is done: as §1

Test [4] addresses T4, IgV domain of B7-H3 (human, UniProt Q5ZPR3 30-130).
T4 sequence: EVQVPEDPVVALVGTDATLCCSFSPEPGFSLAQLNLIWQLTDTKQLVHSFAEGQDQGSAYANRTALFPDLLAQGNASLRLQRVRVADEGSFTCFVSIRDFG
In words: ELISA on coated antigen, IgG1 antibody. The procedure:
as §1

Test [5] addresses T2, 4Ig B7-H3 (soluble human B7-H3 protein …). In words: SPR, BIAcore T200, antibody amine-coupled to the chip, antigen as analyte, 1:1 Langmuir fit. The procedure:
SPR detection was performed with BIAcore T200 (GE) system. Series Sensor Chip CMS and the amine coupling kit for immobilization were purchased from GE.
The B7-H3 antigen was diluted with HBS-EP buffer in a certain proportion to concentration gradients of 0 nM, 0.15625 nM, 0.3125 nM, 0.625 nM, 1.25 nM (two replicates), 2.5 nM, 5 nM, 10 nM, 20 nM, the flow rate was set to 30 μL/min, the binding time was set to 120 s, and the dissociation time was set to 1800 s for sample analysis. For regeneration, Gly-HCl buffer (pH 1.5) could be used as a regeneration buffer, the flow rate was set to 30 μL/min, and regeneration was performed for 30 s. The experiment adopted multi-cycle operation, for the response signal, the analysis time was set as the abscissa and the response value was set as the ordinate. The obtained data was fitted by BIAcore T200 analysis software. The fitting model used was 1:1 Langmuir binding model, and the kinetic constants such as the binding rate constant, the dissociation rate constant, and the binding and dissociation constant were determined.

Test [6] concerns the target T4, IgV domain of B7-H3. Briefly: ELISA on B7-H3 domains, IgG1 antibody. The procedure: as §1
The target in test [7] is T5, antigen B7-H3 (R&D).
T5 construct: construct not described; also called B7-H3 protein; coated B7-H3 protein
T5 sequence (Q5ZPR3 whole entry, species assumed, looked up): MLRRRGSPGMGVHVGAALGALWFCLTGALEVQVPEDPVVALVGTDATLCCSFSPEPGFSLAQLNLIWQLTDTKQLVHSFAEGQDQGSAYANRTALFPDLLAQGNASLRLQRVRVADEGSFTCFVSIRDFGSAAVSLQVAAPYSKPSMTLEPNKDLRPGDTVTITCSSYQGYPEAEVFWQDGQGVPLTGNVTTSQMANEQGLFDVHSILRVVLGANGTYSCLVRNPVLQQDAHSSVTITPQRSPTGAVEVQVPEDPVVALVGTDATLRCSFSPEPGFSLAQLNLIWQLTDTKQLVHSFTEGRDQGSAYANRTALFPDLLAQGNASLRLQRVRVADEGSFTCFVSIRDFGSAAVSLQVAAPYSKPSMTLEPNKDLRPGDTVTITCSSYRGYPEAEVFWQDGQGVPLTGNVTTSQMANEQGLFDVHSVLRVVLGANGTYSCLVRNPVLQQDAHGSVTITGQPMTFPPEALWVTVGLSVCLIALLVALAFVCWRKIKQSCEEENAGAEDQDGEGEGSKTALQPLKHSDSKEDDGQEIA
In words: ELISA on coated B7-H3. The procedure: as §1

The target of test [8] is T6, B7-H3 on B7-H3 transfected CHO cells.
T6 construct: whole, on cells; also called CHO cells transfected with B7-H3
T6 sequence (Q5ZPR3 1-534, species assumed, looked up): T5 sequence (Q5ZPR3 whole entry, species assumed, looked up)
In words: cell-based ELISA on B7-H3 transfected CHO-K1 cells.

This note sets out measurements from US20220017620A1 (SHANGHAI FUDAN ZHANGJIANG BIO PHARMACEUTICAL, published 2022).

B1: P1G2 full-length IgG1 antibody (antibody, V domains shown)
VH: QVQLQQSGAEVKKPGSSVKVSCKASGGTFSSYAISWVRQAPGQGLEWMGRIIPILGIANYAQKFQGRVTITADKSTSTAYMELSSLRSEDTAVYYCAVNYYDSSGYYSDYWGQGTLVTVSS
VL: SYELTQPPSASGSPGQSVTISCTGTSSDVGGYNYVSWYQQHPGKAPRLMIYGVSQRPSGVPDRFSGSKSGNTASLTVSGLQAEDEADYYCSSYANNNYVFGTGTKVTVL
The term Kd denotes a measure of binding affinity in units of concentration. High values mean lower affinity, low ones higher affinity. The term koff denotes the first-order rate constant of dissociation. A low value points to a long-lived complex. A word on the kon: it is the rate constant with which the complex forms. For B1, the ELISA signal value in test [1] fell in the range of 0.3 to 0.5 elisasignalvalue; in test [2] it was 1.6 to 3 elisasignalvalue; in test [3] it was 0.6 to 1.5 elisasignalvalue; in test [4] it was 0.3 to 0.5 elisasignalvalue. In addition, binding in test [5] was characterised by a dissociation constant (Kd) of 0.23 nM. For the same molecule, in test [5], the off-rate (koff) is 0.00167 s⁻¹. The molecule further showed an on-rate (kon) in test [5] of 7.26e+06 M⁻¹ s⁻¹.

B2: P1E11 full-length IgG1 antibody (antibody, V domains shown)
VH: not shown
VL: EIVLTQSPLSLPVTLGQPASISCRSSQSLVHSDGNTYLNWFQQRPGQSPRRLIYKVSNRDSGVPDRFSGSGSGTDFTLKISRVEAEDVGFYYCMQGTHWPPGTFGQGTKLEIK
notes: also called biotin-P1E11
For the molecule B2, in test [1], the ELISA signal value is 0.6 to 1.5 elisasignalvalue. The molecule also registered an ELISA signal value in test [3] of 1.6 to 3 elisasignalvalue. Further, in test [5], the affinity, expressed as Kd, was 0.0248 nM; the koff amounted to 7.76e-05 s⁻¹; the on-rate (kon) amounted to 3.13e+06 M⁻¹ s⁻¹. In test [6], the binding result was “no binding (tested: ELISA signal value 0.1~0.2)”.

B3: P3H6 full-length IgG1 antibody (antibody, V domains shown)
VH: QVQLVQSGAEVKKPGESLKISCKGSGYSFSNYWIGWVRQMPGKGLEWMGIIYPGDSDTRYSPSFQGQVTISADKSISTAYLQWSSLKASDTAMYYCARSRGYPTNYMDVWGRGTTVTVSS
VL: QAVLTQPPSVSGAPRQRVTISCSGSSSNIGNNIVSWYQHLPGKAPRLLIYRERQRPSGVPDRFSGSKSGTSASLAISGLRSEDEADYYCATWDDSLNSWVFGGGTKLTVL
For orientation: EC50 (read off the curve) means the midpoint of the concentration-response curve. Low values mean an effect from little substance, high ones a need for much substance. Regarding B3, the ELISA signal value in test [4] is 1.6 to 3 elisasignalvalue. The “EC50 (read off the curve)” value in test [7] is roughly 100 ng/mL.

B4: P2E5 full-length IgG1 antibody (antibody, V domains shown)
VH: QVTLKESGGGLVQPGGSLRLSCAASGFTFSNSYMTWVRQAPGMGLEWVASMKPDGSVKHYVDSVKGRFTISRDNTKNSLDLQMNSLRAEDTAVYYCSSYDTRWGWFDPWGEGTLVTVSS
VL: QTVVTQEPSFSVSPGGTVTLTCGLNSGSVSTSYFPSWYQQTPGQAPRTLIYNTNTRSSGVPDRFSGSILGNKAALTITGAQADDESDYYCLLYMDSGPHWVFGGGTKLTVL
notes: also called biotin-P2E5
Consider B4, for which the ELISA signal value in test [1] was 0.3 to 0.5 elisasignalvalue; in test [2], 0.6 to 1.5 elisasignalvalue; in test [3] it was 0.3 to 0.5 elisasignalvalue; in test [4], 0.3 to 0.5 elisasignalvalue. The molecule further registered a dissociation constant (Kd) in test [5] of 2.4 nM. Moreover, the koff in test [5] worked out at 5.9e-05 s⁻¹. For the same molecule, the kon in test [5] turned out to be 42500 M⁻¹ s⁻¹. For the same molecule, the concentration giving a half-maximal response (EC50 (read off the curve)) in test [8] is roughly 20 ng/mL.
